This assay deals with T1, Vascular endothelial growth factor (VEGF165), P15692.
T1 chain: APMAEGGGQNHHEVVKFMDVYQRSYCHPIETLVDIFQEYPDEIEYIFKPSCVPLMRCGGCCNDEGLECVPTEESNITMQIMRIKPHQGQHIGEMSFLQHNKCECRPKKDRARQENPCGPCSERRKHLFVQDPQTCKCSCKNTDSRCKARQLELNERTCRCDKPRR
As to the kind of experiment: competition FP, tracer BODIPY-v114*ΔNT.

A value given as a limit tells only on which side of the number the result lay.

Data on two molecules can be found in patent US20150203555A1.

Regarding VDNKFNKEMHNAYAIEIALLPNLNDQQFHAFIWSLIDD (modifications not checked) [Z-VEGF (1-38)], the inhibition constant Ki (commonly a dissociation constant, usually derived from enzyme kinetics or from competition with a known ligand) is over 100 µM.
In turn, VDNKFNKEQHNARAIEAALDPNLNDQQFHAKIWSIIDD (modifications not checked) [α-VEGF-1] yielded a Ki of over 100 µM.
